Protein stability index data for 94 variants are collected here from the supplement of paper PMC10567573.

First the molecules themselves.
B1: CPXM2 (parent)
chain: EILGCPLPDPNNYYHRRNEMTTTD
B2: SPACA3 (parent)
chain: FTSGFNAAALDYEADGSTNNGIFQ
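Further: lentivirally expressed fusions sorted by FACS into six bins by GFP to DsRed ratio, PSI derived from sequencing read proportions per bin multiplied by bin number.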

The variants in one data set derive from B1. The data set can be described thus: protein stability index of a GFP-peptide fusion (GPS, HEK-293T) (PSI 1-6); higher = more stable. As to conditions: c terminus: a fixed tail appended.
As to EILGCPLPDPNNYYHSRNEMTTTD [R16S], the protein stability index came out at 4.14. The same measure, in the same setting: the value for EILGCPLPDPNNYYHWRNEMTTTD [R16W] was 2.76; that for EILGCPLPDPNNYYHVRNEMTTTD [R16V] was 3.19. In the case of EILGCPLPDPNNYYHYRNEMTTTD [R16Y], the protein stability index was determined as 2.83.

As to EILGCPLPDPNNYYHTRNEMTTTD [R16T], the protein stability index was 3.48.

For EILGCPLPDPNNYYHQRNEMTTTD [R16Q], the protein stability index was determined as 4.03. Still for that read-out and setting: the value for EILGCPLPDPNNYYHPRNEMTTTD [R16P] was 3.55. Still for that read-out and setting: the value for EILGCPLPDPNNYYHRRNEMTTTY [D24Y] was 2.29; that for EILGCPLPDPNNYYHRRNEMTTTK [D24K] was 3.65; that for EILGCPLPDPNNYYHRRNEMTTTG [D24G] was 2.76. On the same count and under the same terms, the value for EILGCPLPDPNNYYHRRNEMTTTR [D24R] was 3.07; that for EILGCPLPDPNNYYHRRNEMTTTA [D24A] was 2.61; that for EILGCPLPDPNNYYHRRNEMTTTI [D24I] was 1.82. On to EILGCPLPDPNNYYHRRNEMTTTP [D24P], for which the protein stability index was found to be 2.49.

With EILGCPLPDPNNYYHRRNEMTTTS [D24S], the protein stability index is 3.27. Take EILGCPLPDPNNYYHRRNEMTTTV [D24V]: the protein stability index was found to be 3.02. Same read-out and setting: the value for EILGCPLPDPNNYYHRRNEMTTTL [D24L] was 2.46. Take EILGCPLPDPNNYYHRRNEMTTTE [D24E]: the protein stability index turned out to be 3.53. Same read-out and setting: the value for EILGCPLPDPNNYYHRRNEMTTTM [D24M] was 2.28. For the variant EILGCPLPDPNNYYHRRNEMTTTC [D24C], the protein stability index is 2.86. Regarding EILGCPLPDPNNYYHRRNEMTTTT [D24T], the protein stability index stood at 2.82. On the same count and under the same terms, the value for EILGCPLPDPNNYYHRRNEMTTTF [D24F] was 1.47. The same measure, in the same setting: the value for EILGCPLPDPNNYYHRRNEMTTTQ [D24Q] was 2.91; that for EILGCPLPDPNNYYHRRNEMTTTN [D24N] was 3.07; that for EILGCPLPDPNNYYHRRNEMTTTW [D24W] was 1.86. With EILGCPLPDPNNYYHRRNEMTTTH [D24H], the protein stability index came to 2.76. For the variant EILGCPLPDPNNYYHRPNEMTTTD [R17P], the protein stability index is 4.15. With EILGCPLPDPNNYYHRYNEMTTTD [R17Y], the protein stability index came out at 2.85. With EILGCPLPDPNNYYHRHNEMTTTD [R17H], the protein stability index was found to be 3.3. On the same count and under the same terms, the value for EILGCPLPDPNNYYHRQNEMTTTD [R17Q] was 4.02; that for EILGCPLPDPNNYYHRENEMTTTD [R17E] was 4.43. Still for that read-out and setting: the value for EILGCPLPDPNNYYHRFNEMTTTD [R17F] was 2.48; that for EILGCPLPDPNNYYHRKNEMTTTD [R17K] was 3.62; that for EILGCPLPDPNNYYHRNNEMTTTD [R17N] was 4.04. For EILGCPLPDPNNYYHRVNEMTTTD [R17V], the protein stability index amounted to 3.22. The same measure, in the same setting: the value for EILGCPLPDPNNYYHRTNEMTTTD [R17T] was 4.19; that for EILGCPLPDPNNYYHRSNEMTTTD [R17S] was 3.88. Still for that read-out and setting: the value for EILGCPLPDPNNYYHRLNEMTTTD [R17L] was 2.7; that for EILGCPLPDPNNYYHRANEMTTTD [R17A] was 3.78; that for EILGCPLPDPNNYYHRGNEMTTTD [R17G] was 3.79.

As to EILGCPLPDPNNYYHRDNEMTTTD [R17D], the protein stability index was 4.64. Still for that read-out and setting: the value for EILGCPLPDPNNYYHRWNEMTTTD [R17W] was 2.63; that for EILGCPLPDPNNYYHRMNEMTTTD [R17M] was 3.8. As to EILGCPLPDPNNYYHRINEMTTTD [R17I], the protein stability index stood at 3.35. Same read-out and setting: the value for EILGCPLPDPNNYYHRCNEMTTTD [R17C] was 2.98; that for EILGCPLPDPNNYYHRRNEMTQTD [T22Q] was 4.18; that for EILGCPLPDPNNYYHRRNEMTFTD [T22F] was 2.77. On to EILGCPLPDPNNYYHRRNEMTPTD [T22P], for which the protein stability index worked out at 3.22. Regarding EILGCPLPDPNNYYHRRNEMTITD [T22I], the protein stability index turned out to be 2.81.

As for EILGCPLPDPNNYYHRRNEMTYTD [T22Y], the protein stability index was 3.31. With EILGCPLPDPNNYYHRRNEMTRTD [T22R], the protein stability index came to 3. Same read-out and setting: the value for EILGCPLPDPNNYYHRRNEMTWTD [T22W] was 1.85; that for EILGCPLPDPNNYYHRRNEMTGTD [T22G] was 3.56; that for EILGCPLPDPNNYYHRRNEMTDTD [T22D] was 4.09. The same measure, in the same setting: the value for EILGCPLPDPNNYYHRRNEMTCTD [T22C] was 3.15; that for EILGCPLPDPNNYYHRRNEMTMTD [T22M] was 3.28; that for EILGCPLPDPNNYYHRRNEMTKTD [T22K] was 3.54. The same measure, in the same setting: the value for EILGCPLPDPNNYYHRRNEMTNTD [T22N] was 3.47.

For the variant EILGCPLPDPNNYYHRRNEMTLTD [T22L], the protein stability index amounted to 2.69. Same read-out and setting: the value for EILGCPLPDPNNYYHRRNEMTATD [T22A] was 3.15.

In the case of EILGCPLPDPNNYYHRRNEMTVTD [T22V], the protein stability index was 3.38. Still for that read-out and setting: the value for EILGCPLPDPNNYYHRRNEMTHTD [T22H] was 3.51; that for EILGCPLPDPNNYYHRRNEMTSTD [T22S] was 3.48.

Regarding EILGCPLPDPNNYYHRRNEMTETD [T22E], the protein stability index is 4.39.

Another data set covers variants of B2. The description is as above. As to conditions: c terminus: a fixed tail appended.
As for FMSGFNAAALDYEADGSTNNGIFQ [T2M], the protein stability index is 3.05. For the variant FLSGFNAAALDYEADGSTNNGIFQ [T2L], the protein stability index came out at 2.78.

On to FKSGFNAAALDYEADGSTNNGIFQ [T2K], for which the protein stability index came to 3.62.

On to FISGFNAAALDYEADGSTNNGIFQ [T2I], for which the protein stability index was determined as 2.02.

Regarding FDSGFNAAALDYEADGSTNNGIFQ [T2D], the protein stability index was 4.32. Same read-out and setting: the value for FHSGFNAAALDYEADGSTNNGIFQ [T2H] was 2.02; that for FESGFNAAALDYEADGSTNNGIFQ [T2E] was 4.66. For FGSGFNAAALDYEADGSTNNGIFQ [T2G], the protein stability index was found to be 3.11. Still for that read-out and setting: the value for FCSGFNAAALDYEADGSTNNGIFQ [T2C] was 2.08; that for FFSGFNAAALDYEADGSTNNGIFQ [T2F] was 3.13; that for FASGFNAAALDYEADGSTNNGIFQ [T2A] was 2.44.

As for QTSGFNAAALDYEADGSTNNGIFQ [F1Q], the protein stability index came to 4.24. Regarding MTSGFNAAALDYEADGSTNNGIFQ [F1M], the protein stability index amounted to 3.99.

Turning to RTSGFNAAALDYEADGSTNNGIFQ [F1R], the protein stability index was found to be 4.61. Same read-out and setting: the value for NTSGFNAAALDYEADGSTNNGIFQ [F1N] was 4.94; that for DTSGFNAAALDYEADGSTNNGIFQ [F1D] was 5.15. Same read-out and setting: the value for KTSGFNAAALDYEADGSTNNGIFQ [F1K] was 4.54; that for STSGFNAAALDYEADGSTNNGIFQ [F1S] was 4.64; that for HTSGFNAAALDYEADGSTNNGIFQ [F1H] was 4.48.

For the variant VTSGFNAAALDYEADGSTNNGIFQ [F1V], the protein stability index was 4.46. Regarding GTSGFNAAALDYEADGSTNNGIFQ [F1G], the protein stability index came out at 4.61.

On to WTSGFNAAALDYEADGSTNNGIFQ [F1W], for which the protein stability index was found to be 3.6.

As to ITSGFNAAALDYEADGSTNNGIFQ [F1I], the protein stability index turned out to be 3.95. On the same count and under the same terms, the value for PTSGFNAAALDYEADGSTNNGIFQ [F1P] was 4.29; that for CTSGFNAAALDYEADGSTNNGIFQ [F1C] was 3.44; that for LTSGFNAAALDYEADGSTNNGIFQ [F1L] was 4.01. Still for that read-out and setting: the value for TTSGFNAAALDYEADGSTNNGIFQ [F1T] was 4.63. As for ATSGFNAAALDYEADGSTNNGIFQ [F1A], the protein stability index stood at 4.21. Consider YTSGFNAAALDYEADGSTNNGIFQ [F1Y], for which the protein stability index stood at 2.24. On the same count and under the same terms, the value for ETSGFNAAALDYEADGSTNNGIFQ [F1E] was 5.11.
